# Reference: patent CN116018351A (SHANGHAI YOUTI JISHENG BIOMEDICAL CO LTD, dated 2023)
# B1: 抗CD123 scFv-C9 (in a CAR on T cells) (scFv)
# scFv: QSVLTQPPSASGTPGQRVTISCSGSNSNIENNYVYWYQHLPGTAPKRLIYQNNQRPSGVPDRFSGSKSGTSASLAISGLRSEDEADYYCSAWDDSLSAWVFGGGTELTVLGGGGSGGGGSGGGGSEVHLVESGGGLVQPGRSLRLSCTASGFTFGDYAMNWVRQAPGKGLEWVGFIRSKASGGTTDYAASVKGRFTISRDDSKSIAYLQMNSLKTEDTAVYYCTRALRGYSYGLFDYWGQGTLVTVSS
# notes: Human scFv from phage display; not shown: rest of the CAR, hinge domain to CD3-zeta domain
# B2: 抗CD123 scFv-C11 (in a CAR on T cells) (scFv)
# scFv: QSVVTQPPSASGTPGQRVTISCSGSSSNIGSNYVYWYQQLPGTAPKLLIYRNNQRPSGVPDRFSGSKSGTSASLAISGLRSEDEADYYCAAWDDSLSGYVFGTGTKLTVLGGGGSGGGGSGGGGSEVQLVESGGGLVQPGRSLRLSCTASGFTFGDYAMSWVRQAPGKGLEWVGFIRSKAYGGTTEYAASVKGRFTISRDDSKSIAYLQMNSLKTEDTAVYYCTRDIGYYGSGSYSPFDYWGQGTLVTVSS
# notes: Human scFv from phage display; also called 抗-CD123-C11; not shown: rest of the CAR, hinge domain to CD3-zeta domain
# B3: 抗CD123 scFv-C29 (in a CAR on T cells) (scFv)
# scFv: QPVLTQPPSASGTPGQRVTISCSGSSSNIGSNYVYWYQQLPGTAPKLLIYRNNQRPSGVPDRFSGSKSGTSASLAISGLRSEDEADYYCAAWDDSLSGYVFGTGTKVTVLGGGGSGGGGSGGGGSEVHLVESGGGLVQPGRSLRLSCTASGFTFGDYAMSWVRQAPGKGLEWVGFIRSKAYGGTTEYAASVKGRFTISRDDSKSIAYLQMNSLKTEDTAVYYCTRDIGYYGSGSYSPFDYWGQGTLVTVSS
# notes: as for B1
# B4: 抗CD123 scFv-C14 (in a CAR on T cells) (scFv)
# scFv: DIRMTQSPSSLSASVGDRVTITCQASQDITNYLNWYHQKPGKAPKLLIYDASNLETGVPSRFSGGGSGTDFTFTISSLQSEDIGTYYCQQYDDLPLTFGGGTKVEIKGGGGSGGGGSGGGGSQVQLQESGPGLVKPSETLSLTCTVSGGSISSSSHYWGWIRQPPGKGLEWIGSIYYSGSTYYNPSLKSRVTISVDTSKNQFSLKLSSVTAADTAVYYCARRVWVWPTYGMDVWGQGTTVTVSS
# notes: as for B1
# B5: 抗CD123 scFv-C15 (in a CAR on T cells) (scFv)
# scFv: DIQLTQSPSTLSASVGDRVTISCRASQSISSWLAWYQHKPGKAPKLLIYKTSALEDGVPSRFSGSGSGTEFTLTISSLQPDDFATYFCLHYGSYTFGQGTKVDIKGGGGSGGGGSGGGGSEVQLVESGGGLVNPGGSLRLSCEASGFTFSDYYISWIRQAPGKGLEWISYISGSSTYTDFADSVKGRFTISRDNAKNTVFLQMNSLRAEDTAVYYCARDRRGRFDPWGQGTLVTVSS
# notes: as for B1
# B6: 抗CD123 scFv-C16 (in a CAR on T cells) (scFv)
# scFv: QSVVTQPPSASGTPGQRVTISCSGSSSNIEGNTVSWYQQFPGAAPKLLIYSNSYRASGVPDRFSGSKSGTSASLAISELQSEDEADYYCSAWDDSLNGPVFGGGTELTVLGGGGSGGGGSGGGGSQVQLQESGGGLVQPGGSLRLSCAASGFTFSSYSMNWVRQAPGKGLEWVSYISSSSSTIYYADSVKGRFTISRDNAKNSLYLQMNSLRAEDTAVYYCARDIYGDWDYYYYGMDVWGQGTTVTVSS
# notes: as for B1
# B7: 抗CD123 scFv-C17 (in a CAR on T cells) (scFv)
# scFv: QSALTQPASVSGSLGQSITISCTGTSSDVGTYDYVSWYQQHPGKAPKLMIYDVTYRPSGVSHRFSGSKSGNTASLTISGLQADDEADYYCQQYNNWPPRYTFGQGTKVEIKGGGGSGGGGSGGGGSQVQLVQSGAEVEKPGASVKLSCTASGYNFNSYYMHWVRLTPGQGLEWMGLINPTNGRTTYAQKFQGRVTMTGDTSTRTVYLALSSLRSEDSALYYCARGSPPHIFDPDFDYWGQGTLVTVSS
# notes: as for B1
# B8: 抗CD123 scFv-C18 (in a CAR on T cells) (scFv)
# scFv: QSALTQPASVSGSPGQSITISCTGTSSDVGGYNYVSWYQQHPGKAPKLMIYDVSNRPSGVSNRFSGSKSGNTASLTISGLQAEDEADYYCSSYTSSSTLFVFGTGTELTVLGGGGSGGGGSGGGGSQVQLQESGPGLVKPSQTLSLTCTVSGGSISSGDYYWSWIRQSPGKGLEWIGYIHSTGTTYYNPSLKSRLTISLDTSKNQFSLKLNSVTAADTAVYYCARGGVGTIFNYWGQGTLVTVSS
# notes: as for B1
# B9: 抗CD123 scFv-C26 (in a CAR on T cells) (scFv)
# scFv: QSVLTQPPSASGTPGQRVTISCSGSRSNIGSNTVSWYQQFPGTAPKLLIYLNNQRPSGVPDRFSGSKSGTSASLAISGLQSEDEAEYYCATWDDDLNGVFGGGTKLTVLGGGGSGGGGSGGGGSEVQLVESGGGLVQPGGSLRLSCAASGFTLSNFEMNWVRQAPGRGLEWVSYISATTSATSYADSVKGRFTISRDNAKNSLYLQMNSLRAEDTAVYYCARVRDGYNFGYYYYYMDVWGKGTTVTVSS
# notes: as for B1
# B10: 抗CD123 scFv-C30 (in a CAR on T cells) (scFv)
# scFv: AIRLTQSPSSLSASVGDRVTITCQASQNINNYLNWYQQKSGKAPKLLIYDASNLEAGVPSRFSGSASGTDFTFTISSLQPEDIATYYCQQNDNLPLTFGQGTRLEIKGGGGSGGGGSGGGGSEVQLVESGGGVVRPGGSLRLSCAASGFTFGDYGMSWVRQAPGKGLEWVSGINWNGGSTGYADSVKGRFTISRDNAKNSLYLQMNSLRAEDTALYYCARDRAPDYGDYLQVGTTDYWGQGTLVTVSS
# notes: as for B1
# B11: 抗CD123 scFv-C2 (in a CAR on T cells) (scFv)
# scFv: QSVVTQPPSVSAAPGQKVTISCSGSSSNIGNNYVSWYQQFPGTAPKLLIYDNNKRPSGIPDRFSGSKSGTSGTLGITGLQTGDEADYYCVTWDTSLSAGVFGGGTKLTVLGGGGSGGGGSGGGGSQITLKESGGGLVKPGGSLRLSCAASGFTFSNAWMSWVRQAPGKGLEWVGRIKSKTDGGTTDYAAPVKGRFTISRDDSKNTLYLQMNSLKTEDTAVYYCTTDPHGYYYGMDVWGQGTTVTVSS
# notes: as for B1
# B12: 抗CD123 scFv-C4 (in a CAR on T cells) (scFv)
# scFv: QSALTQPPSASGTPGQRVTISCSGSSSNIGSNYVNWYQQLPGTAPKLLIYRNNQRPSGVPDRFSGSKSGTSASLAISGLRSEDEADYYCAAWDDSLSGHGVFGTGTELTVLGGGGSGGGGSGGGGSQVQLVQSGPEVKKPGASVKVSCKASGYDFIRYYMNWVRQAPGQGPEWMGAIDPSDGDTTYGQKFQGRVTLTRDTFTSTVYMELSSLRSEDTAVYYCARDWELTNSYGLDVWGQGTTVTVSS
# notes: as for B1
# B13: 抗CD123 scFv-C5 (in a CAR on T cells) (scFv)
# scFv: NFMLTQPHSVSESPGKTVTLSCTRSSGSIAGSYVQWYQQRPGSSPTTVIFQDNQRPSGVPDRFSGSIDKSSNSASLTISGLKTEDEADYYCQSYDSNNQVFGGGTKLTVLGGGGSGGGGSGGGGSEVHLVESGGGVVRPGGSLRLSCAASGFTFGDYGMSWVRQAPGKGLEWVSGINWNGGRTGYADSVKGRFTISRDNAKNSLYLQMNSLRAEDTALYYCARARGSGSYFGYMDVWGKGTTVTVSS
# notes: Human scFv from phage display; also called 抗-CD123-C5; not shown: rest of the CAR, hinge domain to CD3-zeta domain
# B14: 抗CD123 scFv-C6 (in a CAR on T cells) (scFv)
# scFv: SYELTQPPSVSVSPGQTARIPCSGADLGDQYVSWYQHQPGQSPLLVIYEDDKRPSGIPERFSGSNSGNTATLTISGTQAMDEADYYCQAWDGNAAIFGGGTKLTVLGGGGSGGGGSGGGGSQVQLVQSGGGSVQPGGSLRLSCAASGFTFTRYSMNWVRQAPGKGLEWVSYISSSSSTIYYADSVKGRFTISRDNAKNSLYLQMNSLRDEDTAVYYCARDGYGGNSDYYGMDVWGQGTTVTVSS
# notes: as for B1
# Biological target: T1, CD123-Fc重组蛋白 (human, UniProt P26951 19-305)
# T1 construct: also called CD123-Fc蛋白; 人CD123-Fc; not shown: Fc part
# T1 sequence: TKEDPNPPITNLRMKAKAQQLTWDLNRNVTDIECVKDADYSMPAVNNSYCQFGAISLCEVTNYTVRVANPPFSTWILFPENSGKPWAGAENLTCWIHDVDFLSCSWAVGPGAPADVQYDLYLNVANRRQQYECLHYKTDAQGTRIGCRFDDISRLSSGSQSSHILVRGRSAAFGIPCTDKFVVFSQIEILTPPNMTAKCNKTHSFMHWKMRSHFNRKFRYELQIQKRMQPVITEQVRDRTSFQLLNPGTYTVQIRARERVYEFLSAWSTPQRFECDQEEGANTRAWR
# Assay: FACS staining of CAR T cells with CD123-Fc recombinant protein
row,Binder,binding result
1,B1,binds
2,B2,binds
3,B3,binds
4,B4,binds
5,B5,binds
6,B6,binds
7,B7,binds
8,B8,binds
9,B9,binds
10,B10,binds
11,B11,binds
12,B12,binds
13,B13,binds
14,B14,binds
